Source: article PMC7920882

What was measured:
Assay in all cases: BLI; reverse outlay: full-length IgG-like constructs (50 ug/mL) loaded on anti-human Fc tips; VEGF in 2-fold dilutions from 500 nM; 25 C, PBS with Kinetic Buffer
TRA-CT6 mAb^2 = molecular target: TRA-CT6 mAb^2
[1] = molecular target: TRA-CH3_(ZWHY)/CT6_(ZWLY)
TRA-CT6ZWY = molecular target: TRA-CT6ZWY
[2] = molecular target: TRA-CT6_(ZWHY)/CH3_(ZWLY)
TRA-CT6ZW-FT = molecular target: TRA-CT6ZW-FT

Kd (TRA-CT6 mAb^2): 2.78 nM
Kd [1]: 6.2 nM
Kd (TRA-CT6ZWY): 16.6 nM
Kd [2]: 16.7 nM
Kd (TRA-CT6ZW-FT): 1.48 nM
Substance: VEGF isomer 109 with N75Q mutation (ligand)
